# According to publication PMC10343800, “A Novel LSTM-Based Machine Learning Model for Predicting the Activity of Food Protein-Derived Antihypertensive Peptides” (Molecules, 2023):
# Ends that are not written are not given here. Peptide text beside a SMILES is read from it.
# Target: T1, ACE (Homo sapiens, UniProt P12821)
# Assay: biochemical
# Conditions: not given
# Experimental: An online tool (https://www.genscript.com/sms2/random_protein.html accessed on 1 March 2023) was used to randomly generate peptides in order to test the efficiency of the model. The top peptides with a small number of IC50 values were selected for synthesis. […] The peptides used for validation were synthesized by Genescript with a purity > 97%. The ACE inhibitory assay was performed according to a previous study with modifications. ACE, N-hippuryl-His-Leu tetrahydrate (HHL, Sigma-Aldrich, St. Louis, MI, USA) and the peptide samples were dissolved in 100 mM of boric acid containing 300 mM of NaCl (pH8.3). Firstly, 10 μL of the peptide solution was preincubated with 50 μL of 6.5 mM HHL at 37 °C for 5 min. Then, 5 μL of 0.1UN/mL ACE (preincubated at 37 °C) was added to the reaction system and incubated at 37 °C for another 30 min. The reaction was terminated by adding 85 μL of 1 M HCl. The concentration of hippuric acid (Hip, the reaction product) was measured by HPLC with a C18 column (5 µm, 250 mm × 4.6 mm). The sample (20 μL) was eluted by a gradient of solvent A (H2O with 0.05% TFA) and solvent B (acetonitrile with 0.05% TFA) at a flow rate of 1.2 mL/min. The absorbance at 228 nm was monitored. The concentration of HA was calculated based on its standard curve. The area under each peak was calculated, in which A = the area under the peak of the blank group (without the peptide) and B = the area under the peak of the peptide group. The ACE inhibitory ratio = (A − B)/A. The ACE inhibitory ratio of each peptide at different concentrations was measured.
# T1 sequence (P12821 30-1306, species assumed): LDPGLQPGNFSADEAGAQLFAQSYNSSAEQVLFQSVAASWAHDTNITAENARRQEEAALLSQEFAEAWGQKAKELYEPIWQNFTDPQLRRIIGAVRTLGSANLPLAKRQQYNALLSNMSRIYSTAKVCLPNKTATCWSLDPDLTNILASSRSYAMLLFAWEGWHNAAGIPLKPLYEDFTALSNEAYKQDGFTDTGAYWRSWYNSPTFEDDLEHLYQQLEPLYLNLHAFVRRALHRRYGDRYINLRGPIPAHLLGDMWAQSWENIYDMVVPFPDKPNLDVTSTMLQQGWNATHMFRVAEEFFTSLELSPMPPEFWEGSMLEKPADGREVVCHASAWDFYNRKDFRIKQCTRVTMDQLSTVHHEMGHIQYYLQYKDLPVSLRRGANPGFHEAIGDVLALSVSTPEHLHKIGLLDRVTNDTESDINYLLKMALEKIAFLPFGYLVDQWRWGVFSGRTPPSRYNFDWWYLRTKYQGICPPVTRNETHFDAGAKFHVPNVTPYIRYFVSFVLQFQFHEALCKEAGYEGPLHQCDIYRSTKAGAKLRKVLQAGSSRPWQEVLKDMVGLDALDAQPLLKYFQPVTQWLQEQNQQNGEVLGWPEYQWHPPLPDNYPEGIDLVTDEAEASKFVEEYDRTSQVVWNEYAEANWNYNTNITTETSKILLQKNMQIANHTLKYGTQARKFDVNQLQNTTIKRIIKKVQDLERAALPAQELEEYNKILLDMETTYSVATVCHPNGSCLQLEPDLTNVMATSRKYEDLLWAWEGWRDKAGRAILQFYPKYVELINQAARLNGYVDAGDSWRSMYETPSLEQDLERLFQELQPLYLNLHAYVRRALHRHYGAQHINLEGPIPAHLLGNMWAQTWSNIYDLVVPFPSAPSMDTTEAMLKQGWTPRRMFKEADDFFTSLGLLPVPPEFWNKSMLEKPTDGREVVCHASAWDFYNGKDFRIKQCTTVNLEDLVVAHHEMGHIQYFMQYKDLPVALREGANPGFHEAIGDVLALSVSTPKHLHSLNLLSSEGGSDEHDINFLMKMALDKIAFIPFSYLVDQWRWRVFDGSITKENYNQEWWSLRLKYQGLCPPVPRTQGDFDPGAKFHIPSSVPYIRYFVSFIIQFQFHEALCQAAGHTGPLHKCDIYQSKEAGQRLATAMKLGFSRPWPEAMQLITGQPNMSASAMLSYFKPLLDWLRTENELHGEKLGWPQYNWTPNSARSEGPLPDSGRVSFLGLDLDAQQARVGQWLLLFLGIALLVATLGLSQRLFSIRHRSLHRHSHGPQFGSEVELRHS
row,Compound,IC50
1,CC[C@H](C)[C@H](NC(=O)[C@@H](N)Cc1ccccc1)C(=O)O [FI] (H-Phe-Ile-OH),0.31 µM
2,CC[C@H](C)[C@H](NC(=O)[C@@H]1CCCN1C(=O)[C@H](CCCCN)NC(=O)[C@@H](N)CC(C)C)C(=O)O [LKPI] (H-LKPI-OH),0.39 µM
3,LKPNS [LKPNS],0.5 µM
4,VHLAP [VHLAP],0.33 µM
5,C[C@H](NC(=O)[C@@H]1CCCN1C(=O)CN)C(=O)N[C@@H](Cc1ccc(O)cc1)C(=O)O [GPAY] (H-GPAY-OH),0.37 µM
6,VYHEL [VYHEL],0.38 µM
7,FALPC [FALPC],0.16 µM
8,IQWCA [IQWCA],0.1 µM
9,LKPDQ [LKPDQ],0.88 µM
10,CC(C)C[C@H](NC(=O)[C@H](C)N)C(=O)N1CCC[C@H]1C(=O)N[C@@H](CC(=O)O)C(=O)O [ALPD] (H-ALPD-OH),1.55 µM
11,PDFLI [PDFLI],0.33 µM
12,N=C(N)NCCC[C@H](NC(=O)[C@H](Cc1c[nH]cn1)NC(=O)[C@H](CC(=O)O)NC(=O)[C@@H](N)Cc1c[nH]cn1)C(=O)O [HDHR] (H-HDHR-OH),0.59 µM
13,PLPLL [PLPLL],0.2 µM
14,CC(C)C[C@H](NC(=O)[C@@H](NC(=O)[C@@H](N)CC(C)C)C(C)C)C(=O)O [LVL] (H-Leu-Val-Leu-OH),0.32 µM
15,KLPAY [KLPAY],0.12 µM
16,VAWKL [VAWKL],0.23 µM
17,CC(C)[C@H](NC(=O)CN)C(=O)N1CCC[C@H]1C(=O)N[C@@H](CCCCN)C(=O)O [GVPK] (H-GVPK-OH),0.25 µM
18,C[C@H](NC(=O)[C@H](CCCCN)NC(=O)[C@H](CC(=O)O)NC(=O)[C@@H](N)Cc1ccccc1)C(=O)O [FDKA] (H-FDKA-OH),0.6 µM

# Same assay, conditions: 6.5 mM HHL, 0.1 UN/mL ACE, 100 mM boric acid with 300 mM NaCl pH 8.3, 37 °C, 5 min preincubation, 30 min incubation; hippuric acid by HPLC C18, 228 nm; read-out: Experimental IC50
row,IC50,Compound
1,0.51 µM,N[C@@H](Cc1c[nH]c2ccccc12)C(=O)N[C@@H](CC(=O)O)C(=O)O [WD] (H-Trp-Asp-OH)
2,0.56 µM,CC(C)C[C@H](NC(=O)[C@H](CCCCN)NC(=O)[C@@H](N)CC(C)C)C(=O)O [LKL] (H-Leu-Lys-Leu-OH)

# Target: T1, ACE
# Assay: not given
# Conditions: in vitro ACE inhibition; read-out: Reported IC50; cited from earlier work
row,Compound,IC50
1,LVLPGE,13.5 µM
2,KIDKVVK,0.62 µM
3,MLPAY,1.58 µM
4,ILSKLK,4.02 µM
5,TVTNPARIA,14.5 µM
6,DAQSAPLRVY,12.2 µM
7,RDGGYCC,0.84 µM
8,VELYP,5.22 µM
9,LEEFCC,1.85 µM
10,GAAELPCSADWW,11 µM
11,EKSYELP,18 µM
12,VDSDVVK,8.64 µM
13,AFVGYVLP,14.4 µM
14,VISDEDGVTH,8.16 µM
15,PAGELHP,0.5 µM
16,DKVGINYW,25.4 µM
17,HLNVVHGN,50.9 µM
18,LRLESF,5.39 µM
19,TFQGGlPPHGIQVER (TFQGGPPHGIQVER),3.4 µM
20,CTFSIPAQC,24.4 µM
21,IPPAYTK,23.5 µM
22,LDSPSEGRAPG,17.9 µM
23,IISKIK,1.19 µM
24,LLVTLKK,0.95 µM
25,WQVLPNAVPAK,1010 µM
26,LVLPGELAK,184 µM
27,PGSGCAGTDL,57.9 µM
28,KGYGGVSLPEW,0.7 µM
